Paper PMC12299175 (Vaccines, 2025)

Assays:
[1] = target: Myc-tagged S fragment of human coronavirus (HCoV)-OC43 (HCoV-OC43 (GenBank L14643.1), UniProt P36334); assay: Western blot; conditions: one partner purified
[2] = target: T1, Myc-tagged S fragment of MERS-CoV (MERS-CoV, isolate of GenBank KT357812.1, UniProt A0A024E0Q9); assay: Western blot; conditions: one partner purified
T1 construct: source: 293FT cells, transiently transfected, in lysate (RIPA buffer)

[3] = target: Myc-tagged S fragment of bat coronavirus (BtCoV)-HKU5 (BtCoV-HKU5 (GenBank AGP04943.1), UniProt S4X425); assay: Western blot; conditions: one partner purified
[4] = target: Myc-tagged S fragment of mouse hepatitis virus (MHV) (Mouse hepatitis virus, ATCC VR-764 …, UniProt P11224); assay: Western blot; conditions: one partner purified
Chain of Myc-tagged S fragment of mouse hepatitis virus (MHV) (P11224 whole entry, looked up, the tested form may be a part): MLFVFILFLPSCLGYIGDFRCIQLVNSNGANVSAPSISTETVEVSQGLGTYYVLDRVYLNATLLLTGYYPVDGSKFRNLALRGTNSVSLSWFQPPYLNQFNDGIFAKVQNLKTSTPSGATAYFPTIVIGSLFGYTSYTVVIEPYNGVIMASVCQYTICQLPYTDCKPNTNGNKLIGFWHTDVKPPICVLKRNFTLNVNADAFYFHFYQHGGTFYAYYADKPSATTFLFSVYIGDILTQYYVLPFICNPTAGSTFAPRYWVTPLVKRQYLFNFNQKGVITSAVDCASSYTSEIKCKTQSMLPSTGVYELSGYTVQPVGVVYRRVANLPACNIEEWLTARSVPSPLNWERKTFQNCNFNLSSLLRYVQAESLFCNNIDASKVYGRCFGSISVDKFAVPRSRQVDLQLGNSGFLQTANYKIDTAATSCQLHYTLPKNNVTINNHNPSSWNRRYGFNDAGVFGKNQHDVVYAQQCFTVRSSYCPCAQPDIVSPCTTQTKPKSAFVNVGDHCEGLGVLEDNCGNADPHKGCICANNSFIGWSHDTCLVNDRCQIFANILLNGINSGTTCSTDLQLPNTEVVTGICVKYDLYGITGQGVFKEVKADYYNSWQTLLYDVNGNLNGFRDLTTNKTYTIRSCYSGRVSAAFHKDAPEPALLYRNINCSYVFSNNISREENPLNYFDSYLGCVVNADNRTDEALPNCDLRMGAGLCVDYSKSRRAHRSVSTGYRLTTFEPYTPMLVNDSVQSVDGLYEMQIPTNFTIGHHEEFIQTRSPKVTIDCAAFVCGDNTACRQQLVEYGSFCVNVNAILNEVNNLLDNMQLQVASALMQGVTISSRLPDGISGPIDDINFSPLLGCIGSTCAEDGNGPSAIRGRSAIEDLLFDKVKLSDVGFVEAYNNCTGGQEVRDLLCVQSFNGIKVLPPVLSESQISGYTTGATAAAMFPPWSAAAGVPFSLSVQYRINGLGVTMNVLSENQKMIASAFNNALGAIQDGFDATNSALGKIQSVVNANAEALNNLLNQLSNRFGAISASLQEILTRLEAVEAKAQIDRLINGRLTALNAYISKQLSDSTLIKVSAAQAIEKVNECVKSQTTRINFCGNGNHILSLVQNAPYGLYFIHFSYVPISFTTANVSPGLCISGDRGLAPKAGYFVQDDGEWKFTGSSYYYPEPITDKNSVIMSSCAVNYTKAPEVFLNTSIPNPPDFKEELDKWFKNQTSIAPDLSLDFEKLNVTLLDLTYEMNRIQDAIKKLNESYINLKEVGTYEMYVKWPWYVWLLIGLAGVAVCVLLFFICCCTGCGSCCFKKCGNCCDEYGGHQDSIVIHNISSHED

[5] = target: T2, synthetic peptide of stem helix (1141-1161) of SARS-CoV-2 WT S with biotin at C terminus (SARS-CoV-2, UniProt P0DTC2); assay: BLI; […] (Gator Bio); antibody at 1 to 100 nM in 100 mM HEPES, 500 mM NaCl, 0.005% Tween20, 0.1% BSA; […]; conditions: both partners purified
T2 construct: source: synthetic peptide

Chain of Myc-tagged S fragment of human coronavirus (HCoV)-OC43 (P36334 whole entry, looked up, the tested form may be a part, one chain of several): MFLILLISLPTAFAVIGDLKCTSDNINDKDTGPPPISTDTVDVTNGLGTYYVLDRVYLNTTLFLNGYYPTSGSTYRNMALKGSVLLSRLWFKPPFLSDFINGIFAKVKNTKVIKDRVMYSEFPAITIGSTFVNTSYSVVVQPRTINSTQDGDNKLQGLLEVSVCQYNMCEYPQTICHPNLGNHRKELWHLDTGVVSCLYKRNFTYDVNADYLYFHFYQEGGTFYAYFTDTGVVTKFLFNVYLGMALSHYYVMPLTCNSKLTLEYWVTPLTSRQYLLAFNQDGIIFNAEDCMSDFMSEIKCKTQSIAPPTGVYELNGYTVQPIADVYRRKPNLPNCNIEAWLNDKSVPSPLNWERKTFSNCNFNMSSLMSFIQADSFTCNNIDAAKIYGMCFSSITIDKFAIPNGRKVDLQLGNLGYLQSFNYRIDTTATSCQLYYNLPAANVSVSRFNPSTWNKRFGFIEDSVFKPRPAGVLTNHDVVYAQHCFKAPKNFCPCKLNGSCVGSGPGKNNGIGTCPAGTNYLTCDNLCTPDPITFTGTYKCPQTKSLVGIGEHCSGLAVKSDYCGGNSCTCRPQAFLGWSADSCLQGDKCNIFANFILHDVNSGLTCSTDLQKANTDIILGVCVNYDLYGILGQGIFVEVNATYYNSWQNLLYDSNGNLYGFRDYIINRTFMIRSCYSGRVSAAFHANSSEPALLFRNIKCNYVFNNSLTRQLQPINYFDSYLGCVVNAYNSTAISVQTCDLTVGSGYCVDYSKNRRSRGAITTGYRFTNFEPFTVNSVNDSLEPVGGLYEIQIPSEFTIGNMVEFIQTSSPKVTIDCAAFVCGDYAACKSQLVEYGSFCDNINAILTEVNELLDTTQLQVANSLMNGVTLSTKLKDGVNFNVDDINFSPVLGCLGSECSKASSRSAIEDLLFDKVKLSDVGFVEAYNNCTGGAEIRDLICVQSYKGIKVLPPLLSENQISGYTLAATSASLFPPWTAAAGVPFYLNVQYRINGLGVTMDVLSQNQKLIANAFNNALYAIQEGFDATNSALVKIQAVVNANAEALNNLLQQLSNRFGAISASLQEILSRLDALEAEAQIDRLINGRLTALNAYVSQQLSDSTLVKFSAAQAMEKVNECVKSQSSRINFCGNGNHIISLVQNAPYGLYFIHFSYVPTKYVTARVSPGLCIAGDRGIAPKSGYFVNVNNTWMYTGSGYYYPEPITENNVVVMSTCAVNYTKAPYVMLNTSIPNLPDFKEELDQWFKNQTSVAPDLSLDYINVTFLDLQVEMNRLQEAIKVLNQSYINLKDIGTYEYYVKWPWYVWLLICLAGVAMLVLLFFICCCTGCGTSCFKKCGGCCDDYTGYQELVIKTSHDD

B1: S2P6 recombinant mAb with human IgG1 constant region (antibody, V domains shown)
VH: EVQLVQSGAEVKKPGASVKVSCKASGYTFTSQYMHWVRQAPGQGLEWIGIINPSGVHTSYAQKFQGRVTLTRDTSTSTLYMELSSLRSEDTAVYYCARGSPKGAFDYWGQGTLVTVSS
VL: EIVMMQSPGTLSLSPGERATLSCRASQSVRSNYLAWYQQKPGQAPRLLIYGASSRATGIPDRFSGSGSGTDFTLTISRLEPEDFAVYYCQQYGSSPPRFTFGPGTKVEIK
notes: also called mAb S2P6
- binding result [1]: binds
- binding result [2]: binds
- binding result [3]: binds
- binding result [4]: binds
- Kd [5]: < 1 pM
